Data on 1 molecule can be found in patent US20260159579A1 (Pfizer, published 2026).

The target of experiment [1] is Mouse Fc-mouse GDF15 (Mu IgG1Fc_Fxa_Mu GDF15) (mouse). In words: SPR BIAcore T200, 37C; Fc-GDF15 captured, monomeric Fc-Fab as analyte. (Surface plasmon resonance follows binding to a sensor surface in real time, without labels.)
For a further experiment, the target named is T1, human BMP11 (human, UniProt O95390 299-407).
T1 construct: Bought; also called GDF-11
T1 sequence (looked up): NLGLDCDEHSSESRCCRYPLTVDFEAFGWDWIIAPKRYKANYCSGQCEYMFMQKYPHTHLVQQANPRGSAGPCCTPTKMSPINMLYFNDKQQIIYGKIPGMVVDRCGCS
Nature of the experiment: BLI, OctetRED 384; family member amine coupled to AR2G biosensor. On the procedure: (§1) To assess the binding specificity of GDF15_001 to human GDF15, GDF15_001 binding to additional TGFB family members was tested. Analysis was carried out on an Octet Red instrument.
(§2) The TGFB family members were diluted to 10 ug/ml in 10 mM Sodium Acetate pH 4.5 and amine coupled onto AR2G biosensors (catalogue #18-5092, ForteBio) according to the manufacturer's instructions. Monomeric GDF15_001 was diluted to 200 nM in kinetics buffer (catalogue #18-5032 ForteBio). Octet assays were conducted at room temperature with an association time of 300 seconds and a dissociation time of 180 seconds. The data was double referenced (Myszka, D., J. Mol. Recognit 1999; 279-284) and analyzed with Octet Data Analysis software version 8.1 (ForteBio).
A general note: BLI is a label-free optical method that tracks binding on a fibre tip over time.

The target of another experiment is T2, human BMP9 (human, UniProt Q9UK05 320-429).
T2 construct: Bought
T2 sequence (looked up): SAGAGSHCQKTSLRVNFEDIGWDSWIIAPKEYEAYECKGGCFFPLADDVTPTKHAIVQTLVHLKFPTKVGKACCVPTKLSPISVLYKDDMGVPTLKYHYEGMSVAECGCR
Described as above. Here is the method: as §1, §2

A further experiment has as its target T3, human BMP2 (human, UniProt P12643 283-396).
T3 construct: Bought
Described as above. Here is the method:
as §1, §2

The next experiment deals with T4, human Activin B (human, UniProt P09529 293-407).
T4 construct: Bought
T4 sequence (looked up): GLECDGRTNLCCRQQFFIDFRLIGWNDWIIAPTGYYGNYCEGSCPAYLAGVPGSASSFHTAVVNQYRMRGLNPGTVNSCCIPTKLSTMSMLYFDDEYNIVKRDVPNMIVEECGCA
Described as above. Here is the method: as §1, §2

In experiment [2] the target is Mouse Fc-mouse GDF15 (Mu IgG1Fc_Fxa_Mu GDF15) (mouse). In words: SPR BIAcore T200, 37C; Fc-GDF15 captured, monomeric Fc-Fab as analyte; average of runs.
Experiment [3] has the same target. Nature of the experiment: SPR BIAcore T200, 37C; Fc-GDF15 captured, monomeric Fc-Fab as analyte; murine GDF15 ligand (Mu IgG1Fc_Fxa_Mu GDF15), first run.
Experiment [4] has the same target. In words: SPR BIAcore T200, 37C; Fc-GDF15 captured, monomeric Fc-Fab as analyte; murine GDF15 ligand (Mu IgG1Fc_Fxa_Mu GDF15), second run.
The target of experiment [5] is T5, Mouse Fc-human GDF15 (Mu IgG1Fc_Fxa_Hu GDF15) (human).
T5 construct: Whole entry is the fusion: mouse IgG1 Fc, FXa site and linker, mature human GDF15; described as dimeric; also called Murine dimeric IgG1 Fc-human GDF-15 with FXa cleavage site; control human GDF15
T5 chain: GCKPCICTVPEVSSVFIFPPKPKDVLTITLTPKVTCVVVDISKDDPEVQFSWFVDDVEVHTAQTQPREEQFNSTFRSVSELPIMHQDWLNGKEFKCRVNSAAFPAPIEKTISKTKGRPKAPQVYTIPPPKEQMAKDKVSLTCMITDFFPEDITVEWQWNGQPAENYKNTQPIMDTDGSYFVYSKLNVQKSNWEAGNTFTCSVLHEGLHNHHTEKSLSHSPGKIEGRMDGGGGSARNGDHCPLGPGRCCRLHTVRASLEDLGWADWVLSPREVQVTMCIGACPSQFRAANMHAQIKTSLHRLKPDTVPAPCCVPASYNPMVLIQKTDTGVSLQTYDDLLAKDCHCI
Nature of the experiment: SPR BIAcore T200, 37C; Fc-GDF15 captured, monomeric Fc-Fab as analyte; human GDF15 ligand (Mu IgG1Fc_Fxa_Hu GDF15), first run. The text has this: To understand the KD value, without the avidity effect, of GDF15_001 binding to GDF15, monomeric Fc-Fab was produced and tested in the same assay used in Example 2. […] Mu IgG1Fc_Fxa_Hu GDF15, Mu IgG1Fc_Fxa_Mu GDF15 and Mu IgG1Fc_Fxa_Cyno GDF15 were captured onto three different flow cells of a CM4 sensorchip (catalogue number BR100534, GE Healthcare) surface using the Mouse Antibody Capture Kit (BR100838, GE Healthcare) according to the manufacturer's protocol. The running and sample buffer was 10 mM HEPES pH 7.4, 0.15M NaCl, 3 mM EDTA, 0.05% P-20 (HBS-EP+). The final capture levels of Mu IgG1Fc_Fxa_Hu GDF15, Mu IgG1Fc_Fxa_Mu GDF15 and Mu IgG1Fc_Fxa_Cyno GDF15 were 19 resonance units (RU), 22 RU and 19 RU respectively. Flow cell 1 was used as a reference flow cell. […] The dissociation was monitored for 1200 seconds and the surface was regenerated with 10 mM Glycine pH 1.7. Binding affinities and rate constants were determined by fitting the resulting sensorgram data to a 1:1 Langmuir model in BIAcore T200 Evaluation software version 2.0 (GE Healthcare).

Values joined by “and” are separate entries in the source; they are usually repeats but may differ in a detail not shown here. Equal values may be shown once.

One may read the koff as the rate constant with which the complex falls apart. A higher koff goes with a short-lived complex. A word on the kon: it is a measure of how fast the partners come together. Low values mean slower complex formation, high ones faster complex formation. What is called Kd is the constant that tells how readily two partners part at equilibrium. Higher therefore signals a looser complex.

T3 sequence (P12643 283-396 limits assumed): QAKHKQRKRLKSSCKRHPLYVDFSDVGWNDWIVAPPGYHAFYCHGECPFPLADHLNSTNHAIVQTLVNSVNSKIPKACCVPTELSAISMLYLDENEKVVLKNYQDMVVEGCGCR

B1: monomeric GDF15_001 (CH23LS-GBT-GDF15_001) (Fab, V domains shown)
VH: QVQLVQSGAEVKKPGSSVKVSCKASGYTFSSYNIDWVRQAPGQGLEWMGGINPIFGTAFYNQKFQGRVTITADESTSTAYMELSSLRSEDTAVYYCAREAITTVGAMDHWGQGTLVTVSS
VL: EIVLTQSPATLSLSPGERATLSCRTSQSVHNYLAWYQQKPGQAPRLLIYDASTRADGIPARFSGSGSGTDFTLTISSLEPEDFAVYYCQQFWSWPWTFGQGTKVEIK
notes: Monovalent 'monomeric Fc-Fab' of GDF15_001 made to measure KD without avidity; also called CH23LS-GDF15_001; monomeric Fc-Fab
Turning to B1, the T½ min in experiment [1] was 3.39 min and 3.73 min. Also, the koff in experiment [1] is 0.00341 s⁻¹ and 0.0031 s⁻¹; in [2], 0.00326 s⁻¹. Also, the association rate constant (kon) in experiment [1] is 1.62e+06 M⁻¹ s⁻¹ and 1.7e+06 M⁻¹ s⁻¹; in experiment [2] it was 1.66e+06 M⁻¹ s⁻¹. In addition, the binding result in the experiment with human BMP11, with human BMP9, in the experiment with human BMP2 and with human Activin B was “no binding (tested: 200 nM)” each time. Moreover, the Kd in experiment [2] was 1.97 nM; in [3], 2.11 nM; in experiment [4] it was 1.82 nM; in experiment [5], 0.0149 nM.
